Results from the DeepSol protein solubility set.

assay: soluble on expression in E. coli; label from the status in PepcDB or PDB records

| Sequence | soluble on expression in E. coli |
| --- | --- |
| MGSDKIHHHHHHMPVAKKYFEIRWHGRAGQGAKSASQMLAEAALEAGKYVQAFPEYGAERTGAPMRAFNRIGDEYIRVRSAVENPDVVVVIDETLLSPAIVEGLSEDGILLVNTVKDFEFVRKKTGFNGKICVVDATDIALQEIKRGIPNTPMLGALVRVTGIVPLEAIEKRIEKMFGKKFPQEVIDANKRALRRGYEEVKCSE | soluble |
| MSLKRITMQDIADRLNISKNSVSQALRGKEGVSKETRELVKRVAKEMGYEYPASRAKSRGKPPRQIALIASDRTFSLKFFGEIYLSIEQEALSHGMKLHIQSVNKEQKERLLLPSFIEEKQVDGVIVLSHISTEYIQQIVATGIPTVLVDHHHPNIPADAVLTNNRFGAYVAVQHLLELNHTDIAFVGDVNYSPSYQERYEGYLLALKDYGVKPNEEWMFCQAQEDETVIAGYIRELKRQPTAWFCVNDGLGFFVSTGLQQYGLKVPDDVSVCSFDNGQLSQIATPKITTVDIDLKRYGKRAVELLRWRWDNPNEPFQEVLLSTKLIKRESTAAKPTREGHHHHHH | soluble |
| MGSDKIHHHHHHVRVTSSSGSCITIPTGVTNVTIRDSEIGPCGQPGDTSAKGIDIQSGASNITVQRNYIHDMATALYAAGARHPIIFDRNRVTNIRGPFPRGQMVQFNGVKSGTSGSKVTCNVSDVQGATYSNVEDHINMYDSGGLSNDRTEIAYNRLRGGSPTSNSGTAIMVGDGASGGNAWVHHNTIVNVRNVGIGVAGGTNIDVESNRIYMDRAATYTNVGLYVWSQGGGSCSGHSVTGNRAWVNSSNGAQNPWWNGGNCGAVELVSNVWGDTSLSSSMFNEVPSQCQ | not soluble |
| MKRYTPDFPEMMRLCEMNFSQLRRLLPRNDAPGETVSYQVANAQYRLTIVESTRYTTLVTIEQTAPAISYWSLPSMTVRLYHDAMVAEVCSSQQIFRFKARYDYPNKKLHQRDEKHQINQFLADWLRYCLAHGAMAIPVYLEHHHHHH | soluble |
| YIYRLGKEKEKNDRLIQSITINQMEARQNEEIINSTHSLRVFKHDIMNHMSILYKLVENGKNSDALKYIYQINNSIERTSYTISTGIIPIDCIMTAKLSKALDNNISIKHQIHFPANYNISDMDLCSLISNLLDNAIEANCKLDMTKRRLQIEIKPYNNMLLLFISNSSNGIYLYGGNGNLLTTKTSNKNEHGIGIKRINEIVKKYNGIIEFDPGTEIFSVSILFPLDN | not soluble |
| MGSDKIHHHHHHMSFEVTFDGMRYSCVNCAYCCSCKNWRVFLSYFDMMRLKGYENYIEKSNSNYEHVLALRNGKCGLIENNLCRIQLEKSYDTKPAMCRLFPFSFMVKWNGDLLLILKHYCGGVQVGKCSKKTIKHAIECCEELYHDQLSEFSLDFAERSDKTSLNEKTEICWEERAELGKYFFKIKKFDSFSEKYSEIFSEDISDSIEKLKSKNSCFDEKTQKLREKETLRYMYELNKREHFRKMSFKKELDNLINVGIIIDDYKDLLKGEGAVDSKLLLN | not soluble |
| MGSDKIHHHHHHMKETWISERRMIQLPGLTIDRHISAPNELEFPGCKYHLLCILLSDHNQQKMTRIGEQESQKSQAKGDFWICPAKMSGIWSWNSTDESLTFVIDPLFLSRMAEEVGELNESKVELLSTVNAHDPQIEAIARLFQAEFDTGGLGGHLYAESLIQVLIVHLLRQYCAFSPKIKPDVGSMPNNRLQPVFDYIHSYLDRPLLLAELAEISGISQYYFCRLFKQSMGVAPYQYVLQQRMEKAKELLHQRKYAIAEIALLVGCADQSRFTRHFKKYVGVTPRMFLSKK | not soluble |
| MGSDKIHHHHHHMAYRSAPLYEDVIWRTHLQPQDPTLAQAVRATIAKHREHLLEFIRLDEPAPLNAMTLAQWSSPNVLSSLLAVYSDHIYRNQPMMIRENKPLISLWAQWYIGLMVPPLMLALLTQEKALDVSPEHFHAEFHETGRVACFWVDVCEDKNATPHSPQHRMETLISQALVPVVQALEATGEINGKLIWSNTGYLINWYLTEMKQLLGEATVESLRHALFFEKTLTNGEDNPLWRTVVLRDGLLVRRTCCQRYRLPDVQQCGDCTLK | not soluble |
| MSLDRASHLKMSSEERRAHRDGTVWQLYEWQQRQQFRHGSPTAPICLGSPEFTDQGRSRSMLEVPRSISVPPSPSDIPPPGPPRVFPPRRPHTPAERVTVKPPDQRRSVDISLGDSPRRARGHAVKNSSHVDRRSMPSMGYMTHTVSAPSLHGKSADDTYLQLKKDLEYLDLKMTGRDLLKDRSLKPVKIAESDTDVKLSIFCEQDRVLQDLEDKIRALKENKDQLESVLEVLHRQMEQYRDQPQHLEKIAYQQKLLQEDLVHIRAELSRESTEMENAWNEYLKLENDVEQLKQTLQEQHRRAFFFQEKSQIQKDLWRIEDVTAGLSANKENFRILVESVKNPERKTVPLFPHEGHHHHHH | soluble |
| MITPKVLSGFKDRLPKDAIQKAQLLAKVSVVFQSFGFVPIETPHLEYAQTLLPDASSDIQKEIYRFKDHGDRDVALRFDLTVPLARFVSLHHQTLGMPFKRYAIGNVFRGERAQKGRYREFTQCDFDFIGSESLVCDAEIIQVIVASLKALDLEDFCVSINHRKILNGICEYFGISQVNEALRIVDKLEKIGLNGVEEELKKECGLNSNTIKELLELIQIKQNDLSHAEFFEKIAYLKDYNENLKKGIQDLERLYQLLGDLQISQNLYKIDFSIARGLGYYTGIVYETTLNEMKSLGSVCSGGRYDHLTKNFSKENLQGVGASIGIDRLIVALSEMQLLDERSTQAKVLIACMHEEYFSYANRLAESLRQSGIFSEVYPEAQKIKKPFSYANHKGHEFVAVIGEEEFKSETLSLKNMHSGMQLNCLSFLKALEIIGENDEDL | not soluble |
| MNVSVERYQRRKYVSQENSPMLYYVRQKSGTVRVMDVEKLADAIEANSSLTAGDVKHAIEAFVEQLRLSLTQGDKVKIDGLGTFHITLCSEGTEKEKDCTVRSIRKVNVRFVADKALHLVNASHTSTRSENNVEFVLASKGDTEGGNAGGGNTGGGGNSGGGGNSGGDEEAPDPTV | not soluble |
| MSLSDSENGGSKTAILCNDLADSYLESYPTVTLEDGVTRTYHNGVYQECRNKYIINNRMMDIAEDMGIVLTPKQIQDALEIVRNKTPFTESKTPINLIPVGNGVLDINTMELSDYSPETVLLTKFPRDYNPSAATPSKFMEMLNTTFDGSEEQIKLVQEMFGYCFLRSYFLEVIFFLIGNGRNGKTTLLSILGALLGGEESGHISSLSFKDLSEPKNENMLCDLYGRYANICGDTGKHKIKETDYIKKVTGNDFVRARKLYKDSFNFKSFAKVILAFNQLPEVDDFSDGFKRRIRIIEFNHKFEDGAGANKNIEAEITGDEEEMEGIFLWAMEGLKRILENNSFSDKRSIVSRGMEYARKSNPMHYFVRECIVESPGHFVNKADLIEKYVEYAEYNKMPQLTPQAFKKGLIAECTDISINTFEKRDQTKTGRPFGFMHIDIDLESWKKHTGKADNASPVEPKEDSKQTQFKELEIQIATTDEEIRKVAEDMASTASEGHHHHHH | soluble |
| MEEPVLDFQFVHRKIHTGQIAAFDIIARLVPIKNIRGNDFDDRPAAAVFGMHNLQTRPVARHFEGGADFTQLIVLTLGQPESAYVAVRLKIVRGDISRGGVGKLTGKQSHT | not soluble |
| KDADHIHHLIDQSLIAKGFQEILTNSLTKGAYNELLSKQEDAVPILNKLSEELAFMRPSLAFTGLETVAYNINRRQKNLKLFEWGKVYFKRGTKYNEYNRLSVFITGNQHAESWNTPSKTVDFFDMKAVVVQILEKLHIAVTQVQEIESNPLFSKGVIYKHAGKELVQFGYISQAALKATDVKQEVLFADFNADLLLELYSNKSKYKEIS | not soluble |
| MGSDKIHHHHHHMNREVVIVGGGPAGMLMGLLLAKEKIQVTVLEKNTTFNRDFRGETIAPGSVFLLKKLGVFKALEEHGFIKVQKIKMYDREEKLFSVNFDDFNHPQKFGIDIPQPVVLEALKQKASSYPNFEYIHGATCTDLIKDGEKVVGIRYSKEKEEHQIKCRLVIGAEGRFSRLRTLGHFAVEKKEFSRDLIWFKVPKPEGWEEGNLIKVYKHDHVIILPTYPNDLRVGTYIYLGGNRETKAKGIAAFIDKVCMIEPRLRKPMEKHIKSWDDTTLLKIFTAHVDQWAKDGLILIGDAAHTLSPILGQGVNIAMQDAFELLPYVNSGLKTYEGPLPAHHFDDYISKRKKQVSFVAGFQERQEQNLAASTPFQCMLRKVKMKLLDKAPFKIKVMKKLQYGVVANETTEGLT | not soluble |
